Reference: patent EP0873354B1

Assays:
[1] = target: rat liver AMPK α1 isoform (affinity purified α1 AMPK, native enzyme) (rat) (UniProt P54645); experiment: peptide substrate affinity chromatography of rat liver preparations, with recycling
[2] = target: rat liver AMPK α1 isoform (affinity purified α1 AMPK, native enzyme) (rat) (UniProt P54645); experiment: peptide substrate affinity chromatography of rat liver preparations, single pass

Sequence of UniProt P54645 (P54645 whole entry, form in doubt, chain 1 of 2, canonical isoform): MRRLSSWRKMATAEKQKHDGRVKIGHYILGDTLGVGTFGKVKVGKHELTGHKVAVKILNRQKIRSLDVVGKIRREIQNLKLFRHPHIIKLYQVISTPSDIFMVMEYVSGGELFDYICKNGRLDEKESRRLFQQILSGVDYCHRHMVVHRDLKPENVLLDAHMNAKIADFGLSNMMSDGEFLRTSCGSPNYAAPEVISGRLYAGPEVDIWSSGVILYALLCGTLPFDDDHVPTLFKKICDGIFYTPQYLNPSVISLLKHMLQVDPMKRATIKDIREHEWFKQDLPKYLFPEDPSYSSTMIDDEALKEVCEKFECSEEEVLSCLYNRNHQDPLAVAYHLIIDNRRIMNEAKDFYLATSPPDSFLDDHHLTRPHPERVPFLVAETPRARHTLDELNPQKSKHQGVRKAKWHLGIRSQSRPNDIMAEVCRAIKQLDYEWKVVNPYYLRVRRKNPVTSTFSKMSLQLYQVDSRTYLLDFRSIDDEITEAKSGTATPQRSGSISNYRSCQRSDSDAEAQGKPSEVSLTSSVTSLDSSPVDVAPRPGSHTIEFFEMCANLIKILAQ
Sequence of UniProt P54645 (P80385 whole entry, form in doubt, chain 2 of 2, further chain, canonical isoform): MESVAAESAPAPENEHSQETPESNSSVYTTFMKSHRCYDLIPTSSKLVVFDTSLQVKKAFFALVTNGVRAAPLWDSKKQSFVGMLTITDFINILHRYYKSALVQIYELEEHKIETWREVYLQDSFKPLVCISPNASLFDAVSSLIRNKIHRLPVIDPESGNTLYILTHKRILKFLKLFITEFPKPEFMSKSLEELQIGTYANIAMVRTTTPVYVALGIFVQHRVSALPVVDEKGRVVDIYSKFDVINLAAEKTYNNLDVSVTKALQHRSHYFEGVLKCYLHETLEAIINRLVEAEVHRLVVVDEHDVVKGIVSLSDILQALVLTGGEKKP

proportion of SAMS peptide phosphotransferase activity bound to the column with recycling [1]: 94%
proportion of SAMS peptide phosphotransferase activity bound to the peptide affinity column with a single pass [2]: 90 to 92%
Substance: ADR1 (222-234)P229 peptide
